In PMC2864582:
Read-outs that look alike come from different tables or passages of the source.

Key:
Assay in all cases: fluorescence quenching
hparp486 [1] = molecular target: T1, hparp486 (Homo sapiens, UniProt P09874 1-486)
hparp486 [2] = molecular target: T1, hparp486; remark: listed apart in the source
hparp486 [3] = molecular target: T1, hparp486; remark: listed apart in the source

T1 sequence (P09874 1-486): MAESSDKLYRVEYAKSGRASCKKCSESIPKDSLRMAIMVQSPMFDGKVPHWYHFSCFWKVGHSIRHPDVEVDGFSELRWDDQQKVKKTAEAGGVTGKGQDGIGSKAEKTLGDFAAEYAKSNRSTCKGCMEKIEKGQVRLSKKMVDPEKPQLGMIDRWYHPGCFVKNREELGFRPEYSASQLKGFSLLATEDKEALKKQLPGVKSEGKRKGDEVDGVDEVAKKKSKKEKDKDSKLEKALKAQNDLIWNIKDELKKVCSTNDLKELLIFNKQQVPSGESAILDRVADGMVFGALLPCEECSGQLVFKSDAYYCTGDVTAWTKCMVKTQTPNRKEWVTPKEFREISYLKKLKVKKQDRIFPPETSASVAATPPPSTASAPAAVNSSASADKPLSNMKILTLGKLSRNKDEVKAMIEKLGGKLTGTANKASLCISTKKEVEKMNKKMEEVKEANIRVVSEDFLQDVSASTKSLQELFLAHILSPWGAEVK

B1: 30Blunt (dsDNA)
DNA 1: ATCAGATAGCATCTGTGCGGCCGCTTAGGG
DNA 2: CCCTAAGCGGCCGCACAGATGCTATCTGAT
With B1 as the binder, how does the Kd (hparp486 [1]) read?
Its Kd is 282 nM.

B2: 30Ext (pos. B) (dsDNA)
DNA 1: ATCAGATAGCATCTGTGCGGCCGCTTAGGGTTAGGG
DNA 2: B1 DNA 2
With B2 as the binder, how does the Kd (hparp486 [2]) read?
The Kd was 130 nM.

B3: 30Ext (pos. A) (dsDNA)
DNA 1: B2 DNA 1
DNA 2: B1 DNA 2
How did the Kd (hparp486 [3]) turn out when B3 was run?
Its Kd is 68 nM.
